Measurements published in the supplement of paper PMC9112550, “Optimization of the antimicrobial peptide Bac7 by deep mutational scanning” (BMC Biology, 2022).

Tested on: Escherichia coli TOP10
Test: shrunken log2 fold change of peptide-encoding DNA abundance (4.5 h post-induction vs induction); higher = less antimicrobial activity (less host growth inhibition)
Conditions: time post-induction: 4.5 h; library: site-saturation at positions 5, 18, 19, 20
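Also: peptides expressed intracellularly from a pBAD plasmid library in pooled LB shake-flask culture, induced with 0.3% L-arabinose, DNA abundance read by NGS, three biological replicates, DESeq2 with apeglm shrinkage.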

RRIRTRPPRLPRPRPRPDWSPRP
shrunken log2 fold change: 0.163

RRIRTRPPRLPRPRPRPDYKPRP
shrunken log2 fold change: -0.303

RRIRTRPPRLPRPRPRPECDPRP
shrunken log2 fold change: -0.134

RRIRTRPPRLPRPRPRPECNPRP
shrunken log2 fold change: 0.0232

RRIRTRPPRLPRPRPRPECPPRP
shrunken log2 fold change: 0.151

RRIRTRPPRLPRPRPRPEDAPRP
shrunken log2 fold change: 0.0648

RRIRTRPPRLPRPRPRPEDTPRP
shrunken log2 fold change: -0.045

RRIRTRPPRLPRPRPRPEEIPRP
shrunken log2 fold change: 0.0464

RRIRTRPPRLPRPRPRPEFAPRP
shrunken log2 fold change: 0.0178

RRIRTRPPRLPRPRPRPEFLPRP
shrunken log2 fold change: -0.536

RRIRTRPPRLPRPRPRPEFRPRP
shrunken log2 fold change: -0.0543

RRIRTRPPRLPRPRPRPEGSPRP
shrunken log2 fold change: 0.161

RRIRTRPPRLPRPRPRPEKKPRP
shrunken log2 fold change: 0.0368

RRIRTRPPRLPRPRPRPEKRPRP
shrunken log2 fold change: -0.0149

RRIRTRPPRLPRPRPRPENTPRP
shrunken log2 fold change: -0.0831

RRIRTRPPRLPRPRPRPEPMPRP
shrunken log2 fold change: 0.00621

RRIRTRPPRLPRPRPRPEQHPRP
shrunken log2 fold change: 0.0492

RRIRTRPPRLPRPRPRPEQLPRP
shrunken log2 fold change: 0.117

RRIRTRPPRLPRPRPRPEQMPRP
shrunken log2 fold change: 0.233

RRIRTRPPRLPRPRPRPEQRPRP
shrunken log2 fold change: -0.000852

RRIRTRPPRLPRPRPRPERCPRP
shrunken log2 fold change: 0.0057

RRIRTRPPRLPRPRPRPERKPRP
shrunken log2 fold change: 0.0268

RRIRTRPPRLPRPRPRPERMPRP
shrunken log2 fold change: 0.275

RRIRTRPPRLPRPRPRPESGPRP
shrunken log2 fold change: 0.366

RRIRTRPPRLPRPRPRPESNPRP
shrunken log2 fold change: -0.178

RRIRTRPPRLPRPRPRPESPPRP
shrunken log2 fold change: 0.305

RRIRTRPPRLPRPRPRPETQPRP
shrunken log2 fold change: 0.205

RRIRTRPPRLPRPRPRPEVEPRP
shrunken log2 fold change: 0.0992

RRIRTRPPRLPRPRPRPEVRPRP
shrunken log2 fold change: 0.0828

RRIRTRPPRLPRPRPRPEVYPRP
shrunken log2 fold change: -0.00166

RRIRTRPPRLPRPRPRPEYYPRP
shrunken log2 fold change: -0.855

RRIRTRPPRLPRPRPRPFAHPRP
shrunken log2 fold change: -0.039

RRIRTRPPRLPRPRPRPFARPRP
shrunken log2 fold change: 0.00253

RRIRTRPPRLPRPRPRPFAWPRP
shrunken log2 fold change: -0.0156

RRIRTRPPRLPRPRPRPFCHPRP
shrunken log2 fold change: 0.0326

RRIRTRPPRLPRPRPRPFCWPRP
shrunken log2 fold change: -0.0403

RRIRTRPPRLPRPRPRPFEEPRP
shrunken log2 fold change: 0.00896

RRIRTRPPRLPRPRPRPFEFPRP
shrunken log2 fold change: -0.508

RRIRTRPPRLPRPRPRPFFWPRP
shrunken log2 fold change: 0.276

RRIRTRPPRLPRPRPRPFGAPRP
shrunken log2 fold change: 0.334

RRIRTRPPRLPRPRPRPFICPRP
shrunken log2 fold change: -0.292

RRIRTRPPRLPRPRPRPFINPRP
shrunken log2 fold change: -0.161

RRIRTRPPRLPRPRPRPFKCPRP
shrunken log2 fold change: -0.18

RRIRTRPPRLPRPRPRPFLPPRP
shrunken log2 fold change: -0.279

RRIRTRPPRLPRPRPRPFLRPRP
shrunken log2 fold change: -0.0935

RRIRTRPPRLPRPRPRPFMEPRP
shrunken log2 fold change: -0.228

RRIRTRPPRLPRPRPRPFMGPRP
shrunken log2 fold change: -0.0574

RRIRTRPPRLPRPRPRPFMNPRP
shrunken log2 fold change: -0.787

RRIRTRPPRLPRPRPRPFMTPRP
shrunken log2 fold change: -0.12

RRIRTRPPRLPRPRPRPFNFPRP
shrunken log2 fold change: -0.617

RRIRTRPPRLPRPRPRPFNLPRP
shrunken log2 fold change: -0.336

RRIRTRPPRLPRPRPRPFNYPRP
shrunken log2 fold change: -0.269

RRIRTRPPRLPRPRPRPFPFPRP
shrunken log2 fold change: -0.406

RRIRTRPPRLPRPRPRPFPGPRP
shrunken log2 fold change: -0.21

RRIRTRPPRLPRPRPRPFPLPRP
shrunken log2 fold change: -0.147

RRIRTRPPRLPRPRPRPFPWPRP
shrunken log2 fold change: -0.125

RRIRTRPPRLPRPRPRPFQDPRP
shrunken log2 fold change: 0.00739

RRIRTRPPRLPRPRPRPFQQPRP
shrunken log2 fold change: 0.0654

RRIRTRPPRLPRPRPRPFSDPRP
shrunken log2 fold change: -0.399

RRIRTRPPRLPRPRPRPFSQPRP
shrunken log2 fold change: -0.0652

RRIRTRPPRLPRPRPRPFVPPRP
shrunken log2 fold change: 2.01

RRIRTRPPRLPRPRPRPFYFPRP
shrunken log2 fold change: -0.57

RRIRTRPPRLPRPRPRPGAAPRP
shrunken log2 fold change: 0.509

RRIRTRPPRLPRPRPRPGATPRP
shrunken log2 fold change: 0.572

RRIRTRPPRLPRPRPRPGCSPRP
shrunken log2 fold change: 0.0133

RRIRTRPPRLPRPRPRPGCVPRP
shrunken log2 fold change: 0.0396

RRIRTRPPRLPRPRPRPGDCPRP
shrunken log2 fold change: -0.195

RRIRTRPPRLPRPRPRPGDDPRP
shrunken log2 fold change: 0.24

RRIRTRPPRLPRPRPRPGECPRP
shrunken log2 fold change: -0.258

RRIRTRPPRLPRPRPRPGEIPRP
shrunken log2 fold change: -0.26

RRIRTRPPRLPRPRPRPGEQPRP
shrunken log2 fold change: 0.15

RRIRTRPPRLPRPRPRPGERPRP
shrunken log2 fold change: 0.113

RRIRTRPPRLPRPRPRPGGMPRP
shrunken log2 fold change: -0.117

RRIRTRPPRLPRPRPRPGGRPRP
shrunken log2 fold change: 0.384

RRIRTRPPRLPRPRPRPGHTPRP
shrunken log2 fold change: -0.342

RRIRTRPPRLPRPRPRPGKLPRP
shrunken log2 fold change: -0.394

RRIRTRPPRLPRPRPRPGLDPRP
shrunken log2 fold change: 0.0222

RRIRTRPPRLPRPRPRPGLEPRP
shrunken log2 fold change: 0.198

RRIRTRPPRLPRPRPRPGLTPRP
shrunken log2 fold change: -0.0361

RRIRTRPPRLPRPRPRPGPTPRP
shrunken log2 fold change: 0.455

RRIRTRPPRLPRPRPRPGQQPRP
shrunken log2 fold change: -0.0603

RRIRTRPPRLPRPRPRPGRAPRP
shrunken log2 fold change: 0.446

RRIRTRPPRLPRPRPRPGRDPRP
shrunken log2 fold change: -0.0751

RRIRTRPPRLPRPRPRPGRPPRP
shrunken log2 fold change: 0.217

RRIRTRPPRLPRPRPRPGRTPRP
shrunken log2 fold change: -0.0318

RRIRTRPPRLPRPRPRPGSEPRP
shrunken log2 fold change: -0.0538

RRIRTRPPRLPRPRPRPGSVPRP
shrunken log2 fold change: -0.179

RRIRTRPPRLPRPRPRPGTLPRP
shrunken log2 fold change: 0.16

RRIRTRPPRLPRPRPRPGTVPRP
shrunken log2 fold change: 0.0209

RRIRTRPPRLPRPRPRPGVQPRP
shrunken log2 fold change: -0.133

RRIRTRPPRLPRPRPRPGYAPRP
shrunken log2 fold change: 0.111

RRIRTRPPRLPRPRPRPHAIPRP
shrunken log2 fold change: 0.103

RRIRTRPPRLPRPRPRPHHGPRP
shrunken log2 fold change: -0.0105

RRIRTRPPRLPRPRPRPHIHPRP
shrunken log2 fold change: -0.102

RRIRTRPPRLPRPRPRPHISPRP
shrunken log2 fold change: -0.0286

RRIRTRPPRLPRPRPRPHIVPRP
shrunken log2 fold change: -0.102

RRIRTRPPRLPRPRPRPHKTPRP
shrunken log2 fold change: -0.035

RRIRTRPPRLPRPRPRPHLCPRP
shrunken log2 fold change: -0.17

RRIRTRPPRLPRPRPRPHMIPRP
shrunken log2 fold change: -0.138

RRIRTRPPRLPRPRPRPHPVPRP
shrunken log2 fold change: 0.1

RRIRTRPPRLPRPRPRPHRNPRP
shrunken log2 fold change: -0.677

RRIRTRPPRLPRPRPRPHRTPRP
shrunken log2 fold change: -0.615

RRIRTRPPRLPRPRPRPHSAPRP
shrunken log2 fold change: 0.205

RRIRTRPPRLPRPRPRPHSFPRP
shrunken log2 fold change: -0.0168

RRIRTRPPRLPRPRPRPHSGPRP
shrunken log2 fold change: -0.166

RRIRTRPPRLPRPRPRPHSNPRP
shrunken log2 fold change: -0.489

RRIRTRPPRLPRPRPRPHSWPRP
shrunken log2 fold change: -0.0571

RRIRTRPPRLPRPRPRPHTVPRP
shrunken log2 fold change: -0.244

RRIRTRPPRLPRPRPRPHWNPRP
shrunken log2 fold change: -0.424

RRIRTRPPRLPRPRPRPHWWPRP
shrunken log2 fold change: 0.203

RRIRTRPPRLPRPRPRPICHPRP
shrunken log2 fold change: 0.055

RRIRTRPPRLPRPRPRPICQPRP
shrunken log2 fold change: -0.0148

RRIRTRPPRLPRPRPRPIDGPRP
shrunken log2 fold change: 0.0685

RRIRTRPPRLPRPRPRPIEFPRP
shrunken log2 fold change: 0.0274

RRIRTRPPRLPRPRPRPIFAPRP
shrunken log2 fold change: 0.408

RRIRTRPPRLPRPRPRPIGHPRP
shrunken log2 fold change: -0.111

RRIRTRPPRLPRPRPRPIGPPRP
shrunken log2 fold change: 0.0411

RRIRTRPPRLPRPRPRPIHCPRP
shrunken log2 fold change: -0.172

RRIRTRPPRLPRPRPRPIHPPRP
shrunken log2 fold change: -0.389

RRIRTRPPRLPRPRPRPIKAPRP
shrunken log2 fold change: -0.143

RRIRTRPPRLPRPRPRPIKIPRP
shrunken log2 fold change: -0.426

RRIRTRPPRLPRPRPRPIKQPRP
shrunken log2 fold change: -0.0342

RRIRTRPPRLPRPRPRPILDPRP
shrunken log2 fold change: 0.0371

RRIRTRPPRLPRPRPRPILTPRP
shrunken log2 fold change: -0.139

RRIRTRPPRLPRPRPRPINPPRP
shrunken log2 fold change: -0.0274

RRIRTRPPRLPRPRPRPINSPRP
shrunken log2 fold change: -0.875

RRIRTRPPRLPRPRPRPIPFPRP
shrunken log2 fold change: -0.325

RRIRTRPPRLPRPRPRPIQDPRP
shrunken log2 fold change: -0.867

RRIRTRPPRLPRPRPRPIQGPRP
shrunken log2 fold change: -0.0537

RRIRTRPPRLPRPRPRPIQQPRP
shrunken log2 fold change: -0.229

RRIRTRPPRLPRPRPRPIRVPRP
shrunken log2 fold change: -0.519

RRIRTRPPRLPRPRPRPIRYPRP
shrunken log2 fold change: -0.0148

RRIRTRPPRLPRPRPRPISIPRP
shrunken log2 fold change: -0.477

RRIRTRPPRLPRPRPRPITDPRP
shrunken log2 fold change: 0.177

RRIRTRPPRLPRPRPRPITIPRP
shrunken log2 fold change: -0.151

RRIRTRPPRLPRPRPRPIVQPRP
shrunken log2 fold change: 0.0444

RRIRTRPPRLPRPRPRPIYMPRP
shrunken log2 fold change: -0.442

RRIRTRPPRLPRPRPRPIYWPRP
shrunken log2 fold change: -0.157

RRIRTRPPRLPRPRPRPKAGPRP
shrunken log2 fold change: 0.768

RRIRTRPPRLPRPRPRPKARPRP
shrunken log2 fold change: 0.0672

RRIRTRPPRLPRPRPRPKCKPRP
shrunken log2 fold change: 0.0156

RRIRTRPPRLPRPRPRPKFDPRP
shrunken log2 fold change: -0.0528

RRIRTRPPRLPRPRPRPKGFPRP
shrunken log2 fold change: 0.0975

RRIRTRPPRLPRPRPRPKIDPRP
shrunken log2 fold change: -0.0576

RRIRTRPPRLPRPRPRPKITPRP
shrunken log2 fold change: -0.464

RRIRTRPPRLPRPRPRPKIVPRP
shrunken log2 fold change: -0.0543

RRIRTRPPRLPRPRPRPKKVPRP
shrunken log2 fold change: -0.282

RRIRTRPPRLPRPRPRPKKWPRP
shrunken log2 fold change: -0.0616

RRIRTRPPRLPRPRPRPKLIPRP
shrunken log2 fold change: -0.0765

RRIRTRPPRLPRPRPRPKLRPRP
shrunken log2 fold change: -0.0516
